This note sets out measurements from JP2016528193A.

The target in one test is ヒトPCSK9(野生型) (human). Briefly: Biacore at pH 6.0 (HBS-P with 0.01 % BSA), fitted from competition curves, n=1. (In SPR one partner is held on a chip, and binding of the other changes the refractive index at the surface.)
Test [1] addresses ヒトD374Y PCSK9 (human). Briefly: cell-based or functional assay.
Test [2] concerns the target ヒトD374Y PCSK9 (human). Put plainly: competition ELISA: block of biotinylated D374Y PCSK9 (20 ng/mL) binding to captured LDLR. For orientation: ELISA stands for enzyme-linked immunosorbent assay.

Usually Kd stands for the equilibrium constant for the complex coming apart. A high value points to weaker binding. What is called IC50 is the concentration that inhibits the measured activity by half. Read a high IC50 as a need for much substance.

Substance 21B12 (antibody) gave a Kd with ヒトPCSK9(野生型) (human) of 0.0073 nM.
Consider 21B12 IgG2 (antibody), for which the 細胞LDL取り込みアッセイ(HepG2、LDL-BODIPY)のIC50 with ヒトD374Y PCSK9 (human) [1] was determined as 13.3 nM. Further, in the test with ヒトD374Y PCSK9 (human) [2], the 50% inhibitory concentration (IC50) was 0.17 nM.
The corresponding values for 21B12 IgG4 (antibody) are 18 nM and 0.169 nM.
Regarding 31H4 IgG2 (antibody), in the test with ヒトD374Y PCSK9 (human) [1], the 細胞LDL取り込みアッセイ(HepG2、LDL-BODIPY)のIC50 worked out at 16.7 nM. For the same substance, the IC50 with ヒトD374Y PCSK9 (human) [2] is 0.199 nM.
For 31H4 IgG4 (antibody), in that order: 13.3 nM and 0.156 nM.
